Assay results from patent publication US20190024087.

biological target: T1, GDF11 (mature human) (Homo sapiens) (UniProt O95390); test: filter; conditions: NapdU at all P (n) positions; 0.1 uM Z-block
T1 sequence: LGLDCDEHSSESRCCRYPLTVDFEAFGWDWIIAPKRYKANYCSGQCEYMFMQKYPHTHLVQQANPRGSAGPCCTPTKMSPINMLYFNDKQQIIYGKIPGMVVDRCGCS

Sequence	Kd
CTGTGCTAAGACTGCGGACTTGATTTAGGTTTAGCCGCAAGAAGTCACAA [16139-37_3]	1.21 nM
CCCTGCGCCTTCGGACTTGCTTTAAGTTTAGCCGCTTGCTTACATCACAA [12060-116_3]	1.14 nM
CTGTGAGTGTACCTCGCGCTTGATTTACGTTTAGGCGAGGCAGGCCACAA [16139-30_3]	0.92 nM
CTGTGGTTAACGACGACTTGATTTACGTTTAGCGGCACCTTACACCACAA [16139-19_3]	1.7 nM
CCCTGCGCCTTCGGACTTGCTTTAAGTTTAGCCGCTTGCTCACGTCACAA [12060-130_3]	0.61 nM
CTGTGGACTGAGTTGGATGGGACTTGATTTAAGTTTAGCCCGCAACACAA [16139-3_3]	1.58 nM
CTGTGACCTTCACCCGTGACTTGGTTTACGTTTAGCGGGTAGGTCACAA [16139-178_3]	1.08 nM
CCCTGCGCCTTCGGACTTGCTTTAAGTTTAGCCGCTTGTTCACATCACAA [12060-4_3]	0.9 nM
CCCTGTGCCTTCGGACTTGCTTTAAGTTTAGCCGCTTGCTCACATCACAA [12060-32_3]	1.45 nM
CCCTGCGCCTTCGGACTTGCTTTAGGTTTAGCCGCTTGCTCACATCACAA [12060-28_40]	1.4 nM
CCCTGCGCCTTCGGACTTGCTTTAAGTTTAGCCGCTCGCTCACATCACAA [12060-204_3]	0.94 nM
CCCTGCGCCTTCGGACTTGATTTAAGTTTAGCCGCTTGCTCACATCACAA [12060-28_38]	1.1 nM
CCCTGCGCCTTCGGACTTGCTTTAAGTTTAGCCGCTTGCTCACAACACAA [12060-300_3]	0.99 nM
CTGTGAACTTGATTTAAGTTTAGGCACATACACCACTCCGGACGA [16139-198_3]	0.62 nM
CTGTGCGTACTGACTTGATTTACGTTTTAGCGATGCATGCTTGAGCCACAA [16139-122_3]	2.23 nM
CCCTGCGCCTTCGGACTTGCTTTACGTTTAGCCGCTTGCTCACATCACAA [12060-238_3]	3.4 nM
CTGTGACTAATGTGACCGGAGACTTGCTTTACGTTTAGCGACCTGCACAA [16139-12_3]	1.7 nM
CCCTGCGCCTTCGGACTTGGTTTAAGTTTAGCCGCTTGCTCACATCACAA [12060-28_39]	1.2 nM
CCCTGGTTGACAAGGTACTGGACTTGATTTACGTTTAGCCTCAAGCACAA [12058-386_3]	6.7 nM

same assay, conditions: NapdU at all P (n) positions; 0.1 uM Z-block; Table 5 gives 4.17 nM, p194 1.74 nM with 1 uM Z-block

Sequence	Kd
CCCTGCGCCTTCGGACTTGCTTTAAGTTTAGCCGCTTGCTCACATCACAA [12060-28_3]	1.7 nM

same assay, conditions: NapdU at all P (n) positions; 0.1 uM Z-block; Table 5 gives 6.52 nM

Sequence	Kd
CCCTGTGAGACTTGATTTACGTTTAGCTGCTAACATGGGGAACCACACAA [12060-16_3]	6.5 nM
